Laboratory results reported in the nanobody polyreactivity screen of Harvey et al. (2022).

Assay: yeast display, Sf9 membrane polyspecificity reagent, FACS + sequencing; frameworks hold sequencing errors
Method in brief: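 Genes from sorted yeast were amplified by colony PCR, read by MiSeq 2 × 250 sequencing and filtered on CDR length. These cells carried a synthetic nanobody library in Saccharomyces cerevisiae BJ5465 and were sorted by FACS into low and high (top ~1%) gates on anti-HA and streptavidin fluorescence. Polyreactivity is labelled according to the gate of origin.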

In the case of “QVQLVESGGGLVQAGGSLRLSCAASGSIFGRNAMGWYRQAPGKEREFVAAISQRGGRTYYADSVKGRFTISRDNAKNTVYLQMNSLKPEDTAVYYCAATYTRVPNRFYYWGQGTQVTVSS”, the “polyreactivity (PSR sort gate)” value is reported as “high polyreactivity”.
For “QVQLVESGGGLVQAGGSLRLSCAASGSIFGRNAMGWYRQAPGKERELVAAISSRSDRTYYADSVKGRFTISRDNAKNTVYLQMNSLKPEDTAVYYCAARYGSSQNGYKSDYWGQGTQVTLSS”, the “polyreactivity (PSR sort gate)” value was “high polyreactivity”.
With “QVQLVESGGGLVQAGGSLRLSCAASGSIFGRNAMGWYRQAPGKERELVARISSRGGSTYYADSVKGRFTISRDNAKNTVYLQLISLKREDTALYYCAAEGGDRYALYTFYTWGQGTQVTVSS” the “polyreactivity (PSR sort gate)” value was “high polyreactivity”.
With “QVQLVESGGGLVQAGGSLRLSCAASGSIFGRNAMGWYRQAPGKERELVAVISKRSGNTYYADSVKGRFTISRDNAKNTVYLQMNSLKPEDTAVYYCNAVDQKLLRYDYGGQGTQVTVSS” the “polyreactivity (PSR sort gate)” value was “high polyreactivity”.
For “QVQLVESGGGLVQAGGSLRLSCAASGSIFGRNAMGWYRQAPGREREFVATITSRGGRTYYADSVKGRFTISRDNAKNTVYLQMNSLKPEDTAVYYCAADTYISTLKKYRLGDYWGQGTQVTVSS”, the “polyreactivity (PSR sort gate)” value was “low polyreactivity”.
With “QVQLVESGGGLVQAGGSLRLSCAASGSIFGRNTMGWYRQAPGKERELVAAIDSSGGSTYYADSVKGRFTISRDNAKNTVYLQMNSLKPEDTAVYYCAAESRYATKSGYGLVLYYYWGQGTQVTVSS” the “polyreactivity (PSR sort gate)” value was “high polyreactivity”.
For “QVQLVESGGGLVQAGGSLRLSCAASGSIFGRYAMGWSRQAPGKERELVAAISRGGSTNYADSVKGRFTISRDNAKNTVYLQMNSLKPEDTAVYYCNRKPYYVSSTRYDYWGQGTQVTVAS”, the “polyreactivity (PSR sort gate)” value was “high polyreactivity”.
In the case of “QVQLVESGGGLVQAGGSLRLSCAASGSIFGRYAMGWYRQAPGKEREFVAAINRSTGSTYYADSVKGRFTISRDNAKNTVYLQMNSLKPEDTAVYYCAARSHSPGYNRRIRGYWGQGTQVTVSS”, the “polyreactivity (PSR sort gate)” value is reported as “high polyreactivity”.
With “QVQLVESGGGLVQAGGSLRLSCAASGSIFGRYAMGWYRQAPGKERELVASINWNSGSTYYADSVKGRFTISRDNAKNTVYLQMNSLKPEDTAVYYCAAAALGYYGYWGQGTQVTVSS” the “polyreactivity (PSR sort gate)” value was “low polyreactivity”.
With “QVQLVESGGGLVQAGGSLRLSCAASGSIFGRYAMGWYRQAPGTERELVAAISSGGITYYADSVKGRFTISRDNAKNTVYLQMNSLTPEDTAVYYCAVKYLSWYAKYDSWGQGTQVTVSS” the “polyreactivity (PSR sort gate)” value was “high polyreactivity”.
For “QVQLVESGGGLVQAGGSLRLSCAASGSIFGRYGKGWYRQAPGKERELVAAITSGTRTNYADSVKGRFTISRDNAKITVYLQMNSLTPEDTAVYYSAKQSYRRLPNTPYNYWGQGTQVTVSS”, the “polyreactivity (PSR sort gate)” value was “low polyreactivity”.
With “QVQLVESGGGLVQAGGSLRLSCAASGSIFGRYGMGWYRQAPGKERELVAAITSGTRTNYADSVKGRFTISRDNAKNTVYLQLNSLKPEDTAVYYCNALRLRGNYEYGYWGLGTQVTVSS” the “polyreactivity (PSR sort gate)” value was “low polyreactivity”.
For “QVQLVESGGGLVQAGGSLRLSCAASGSIFGRYTMGWYRQAPGKERELVAAINRSGGSTSYADSVKGRFTISRDNAKNTVYLQMNSLKPEDTAVYYCNRARSVPQFYGTYGFGYDYWGQGTQVTVSS”, the “polyreactivity (PSR sort gate)” value was “low polyreactivity”.
With “QVQLVESGGGLVQAGGSLRLSCAASGSIFGRYTMGWYRQAPGKERELVAAISWGGGSTYYADSVKGRFTISRDNAKNTVYLQMNSLKREDTAVYYCDADTYWAIDPIYDYWGQGTQVTVSS” the “polyreactivity (PSR sort gate)” value was “low polyreactivity”.
In the case of “QVQLVESGGGLVQAGGSLRLSCAASGSIFGRYVMGWYRQAPGKERELVAAISGSGTSTYYADSVKGRFTISRDNAKNTVFLQMNSLKPEDTAVYYCAARDIKSSHDYDYWGQGTQVTVSS”, the “polyreactivity (PSR sort gate)” value is reported as “low polyreactivity”.
For “QVQLVESGGGLVQAGGSLRLSCAASGSIFGSNAMGWYRPAPGKERELVAAITNTGRTNYADSVKGRFTISRDNAKNTVYLQMNSLKPEDTAVYYCYTDGYEFTHFVGGWYQIIDYDYWGQGTQVTVSS”, the “polyreactivity (PSR sort gate)” value was “low polyreactivity”.
In the case of “QVQLVESGGGLVQAGGSLRLSCAASGSIFGSNAMGWYRQAPGKERELVAAISVRDGSTSYADSVKGRFTISRDNAKNTVYLQMNSLKPEDPAVYYCTAKSLAERYYRPEMDYWGQGTQVTVSS”, the “polyreactivity (PSR sort gate)” value is reported as “low polyreactivity”.
In the case of “QVQLVESGGGLVQAGGSLRLSCAASGSIFGSNAMGWYRQAPGKERELVAAITNTGRTNYADSVKGRFTISRDYAKNTVYLQMNSLKPEDTAVYYCNADWRRSHAYGYWGQGTQVTVSS”, the “polyreactivity (PSR sort gate)” value is reported as “low polyreactivity”.
With “QVQLVESGGGLVQAGGSLRLSCAASGSIFGSNAMGWYRQAPGKERELVAANSKSGGSTYYADSVKGRFTISRDNAKITVYLQMNSLKPEDTAVYYCNARWWVVTFYGRYEGDYWGQGTQVTVSS” the “polyreactivity (PSR sort gate)” value was “low polyreactivity”.
With “QVQLVESGGGLVQAGGSLRLSCAASGSIFGSNAMGWYRRAPGKERELVAVINASGASTYYADSVKGRFTISRDNAKNTVYLQKNSLKPEDTAVYYCAKDPFPFPGGDYWGQGTQVTVSS” the “polyreactivity (PSR sort gate)” value was “low polyreactivity”.
With “QVQLVESGGGLVQAGGSLRLSCAASGSIFGSYAMGWYRQAPGKERELVAAISKSGGNTYYADSVKGRFTISRDNAKNTVYLQMNSLKPEDTAVYYCAAYGFYRWRGYDYWGQGTQVTVSS” the “polyreactivity (PSR sort gate)” value was “high polyreactivity”.
In the case of “QVQLVESGGGLVQAGGSLRLSCAASGSIFGSYTMGWYRQAPGKERELVAAITTSGSSTYYADSVKGRFTISRDNAKNTVYLQMNSLKPEDTAVYYCSAEYYVTYPPYGWYDYWGHGTQVTVSS”, the “polyreactivity (PSR sort gate)” value is reported as “high polyreactivity”.
With “QVQLVESGGGLVQAGGSLRLSCAASGSIFGSYVMGGYRQAPGKERELVATITNGGSTYYADSVKGRFTISRDNAKNTVYLQMNSLKPEDTAVYYCAADGRGDLYVWPGIGGDYWGQGTQVTVSS” the “polyreactivity (PSR sort gate)” value was “low polyreactivity”.
With “QVQLVESGGGLVQAGGSLRLSCAASGSIFGTNAMGWYIQAPGKEREFVATISSRTGSTYYADSVKGRFTFSRDNAKNTVYLQMNSLKPEDTAVYYCAAVRWYGKYDYWGQGTQVTVSS” the “polyreactivity (PSR sort gate)” value was “low polyreactivity”.
With “QVQLVESGGGLVQAGGSLRLSCAASGSIFGTYAMGWYRQAPGKARELVAAITGSGGRTYYADSVKGRFTISRDNAKNTVYLQMNSLKPEDTAVYYCNKVVYVRSYPPRYDYWGQGTQVTVSS” the “polyreactivity (PSR sort gate)” value was “high polyreactivity”.
For “QVQLVESGGGLVQAGGSLRLSCAASGSIFGTYAMGWYRQAPGKERELVAAISWSDGSTYYADSVKGRFTISRDNAKNTVYLQMNSLKPEDTAVYYCAKVYRSIGPNVSRYGLSYYYWGQGTQVTVSS”, the “polyreactivity (PSR sort gate)” value was “low polyreactivity”.
For “QVQLVESGGGLVQAGGSLRLSCAASGSIFGTYAMGWYRQAPGKERELVAAITGSGGRTYYADSVKGRFTISRDNAKNTVYLQMNSLKPEDTAVYYCNKVVYVRSYPPRYDYWGQGTQVSVSS”, the “polyreactivity (PSR sort gate)” value was “high polyreactivity”.
With “QVQLVESGGGLVQAGGSLRLSCAASGSIFGTYAMRWYIQAPGKERDLVATISYGDGYTYYADSVKGRFTISRDNAKNTVYLLMNSLKPEDTPVYYCNTGVFSSGGPLVYWGEGTQVTVSS” the “polyreactivity (PSR sort gate)” value was “low polyreactivity”.
With “QVQLVESGGGLVQAGGSLRLSCAASGSIFGVNMGWYRQAPGKERELVASITSGGSTNYADSVKGRFTISRDNAKNTVYLQMNSLKPEDTAVYYCATDRYVWGQGTQVTVSS” the “polyreactivity (PSR sort gate)” value was “low polyreactivity”.
In the case of “QVQLVESGGGLVQAGGSLRLSCAASGSIFGVYAMGLYRQAPGKERELVASIDTSTGSTYYADSVKGRFTISRDNAKNTVYLQMNSLKPEDTAVYYCNADVGYYFTFEYWGQGTQVTVSS”, the “polyreactivity (PSR sort gate)” value is reported as “high polyreactivity”.
For “QVQLVESGGGLVQAGGSLRLSCAASGSIFGVYAMGWYRQAPGKERELVAGITFGDSTTYYADSVKGRFTISRDNAKNTVYLQMNSLKPEDTAVYYCAADNRWEDYKVDYWGQGTQVTVSS”, the “polyreactivity (PSR sort gate)” value was “low polyreactivity”.
In the case of “QVQLVESGGGLVQAGGSLRLSCAASGSIFGVYAMGWYRQAPGKERELVAVITYRDGSTYYADSVKGRFTISRVNAKNTVYLQMNSLKPEDSAVYYCAADSYLGWHSDYGVEYYYWGQGTQVTVSS”, the “polyreactivity (PSR sort gate)” value is reported as “low polyreactivity”.
With “QVQLVESGGGLVQAGGSLRLSCAASGSIFGVYDMGWYRQAPGKERELVAVINSNGGSTYYADSVKGRFTISRDNAKNTVYLQMNSLKPEDTAVYYCAAERATVKFGYWGQGTQVTVSS” the “polyreactivity (PSR sort gate)” value was “low polyreactivity”.
For “QVQLVESGGGLVQAGGSLRLSCAASGSIFGYNARGWYRQAPGKERELVATINWSGTSTYYAASVKGRFTISRDNAKNTVYLQMNSLKPVDTAVYYCNAKYLWYGRYNYWGQGTQVTVSS”, the “polyreactivity (PSR sort gate)” value was “high polyreactivity”.
In the case of “QVQLVESGGGLVQAGGSLRLSCAASGSIFGYNTMGWYREAPGKERELVAAISYRGGSTYADSVKGRFTISRDNAKNTVYLQLNSLKPEDTAVYYSAATSYTATWRYYYWGQGTQVTVSS”, the “polyreactivity (PSR sort gate)” value is reported as “high polyreactivity”.
In the case of “QVQLVESGGGLVQAGGSLRLSCAASGSIFGYNVMGWYRQAPGKERELVAAITYSGGSTYYADSVKGRFTISRDNAKNTVYLQMNSQKQEDTAVYYCAKVTGRRFPAYGYDHWGQGTQVTVSS”, the “polyreactivity (PSR sort gate)” value is reported as “high polyreactivity”.
With “QVQLVESGGGLVQAGGSLRLSCAASGSIFGYYALGWSRPAPGKERELVASITSGDSTNYADSVKGRFTISRDNAKKTVYLQMNSQKPEDTAVYYCTTERGDYDEYDYWGQGTQVTVSS” the “polyreactivity (PSR sort gate)” value was “low polyreactivity”.
In the case of “QVQLVESGGGLVQAGGSLRLSCAASGSIFGYYAMGWYRQAPGKERELVAAINSSGGSTYYADSVKGRFTISRDNAKNTVYLQMNSLKPDDTAVYYCAVRTRYKFNYWGQGTQVTVSS”, the “polyreactivity (PSR sort gate)” value is reported as “low polyreactivity”.
With “QVQLVESGGGLVQAGGSLRLSCAASGSIFGYYAMGWYRQAPGKERELVAAISVSGGSTYYADSVKGRFTISRDNAKNTVYLQMNSLKPEDTAVYYCKKVQGSWRVPYYYWGQGTQVTVSS” the “polyreactivity (PSR sort gate)” value was “high polyreactivity”.
In the case of “QVQLVESGGGLVQAGGSLRLSCAASGSIFGYYAMGWYRQAPGKERELVAAITRSGGSTYYADSVKGRFTISRDNAKNTVYLQMNSLKPEDTAVYYCNAVRYAVRLPAFPGYDYWGQGTQVTVSS”, the “polyreactivity (PSR sort gate)” value is reported as “high polyreactivity”.
In the case of “QVQLVESGGGLVQAGGSLRLSCAASGSIFGYYAMGWYRQAPGKERELVAAITWNADGTYYADSVKGRFTISRDNAKNTVYLQMNSLKPEDTAVYYCAADQYYQDWGGGYDYWGQGTQVTVSS”, the “polyreactivity (PSR sort gate)” value is reported as “low polyreactivity”.
With “QVQLVESGGGLVQAGGSLRLSCAASGSIFGYYAMGWYRQAPGKERELVAAITWSGDSTYYADSVKGRFTISRDNAKNTVYLQMNSLKPEDTAVYYCAARQFVHTRYFSFGYWGQGTQVTVSS” the “polyreactivity (PSR sort gate)” value was “low polyreactivity”.
With “QVQLVESGGGLVQAGGSLRLSCAASGSIFGYYAMGWYRQAPGKERELVAAITYSGGNTNYADSVKGRFTISRDNAKNTVYLQMNSLKPEDTAVYYCAARKNYQAVYARRTRYYYWGQGTQVTVSS” the “polyreactivity (PSR sort gate)” value was “high polyreactivity”.
